The results in this text go back to patent US11352399B2, “Peptide for toll-like receptor (TLR) inhibition and pharmaceutical composition comprising same” (GENESEN CO., LTD., priority 2017, dated 2022).

One experiment has as its target T1, hTLR4 (human TLR4) (Homo sapiens, UniProt O00206).
T1 construct: host or cells: HEK-Blue-hTLR4 (HEK293-derived reporter line)
Nature of the experiment: SEAP activity (NF-κB activity) in HEK-Blue-hTLR4 cells. In kind it is cell-based. The conditions noted are these: for NF-κB activity (SEAP activity): together with LPS, FIG. 12(a); for SEAP activity, CPP sequence not linked: 12.5, 25, 50 μM, FIG. 1(b). Here is the method: HEK-Blue™-hTLR4 cells were dispensed into 24-well plates (BD Biosciences) to a cell number of 2×10^5 cells/well, and incubation was performed overnight. The next day, the culture was removed and medium replacement was performed. Then, a portion (200 μl) of the culture was transferred to a microcentrifuge tube and heated at 65° C. for 10 minutes using a heating block (FINEPCR. Co., Seoul, Korea). Subsequently, the culture was transferred to 96-well plates (BD Biosciences), and absorbance was measured at 405 nm using the HEK-Blue™ detection kit (InvivoGen) and a microplate reader spectrophotometer (Molecular Devices Inc., Silicon Valley, Calif., USA), to analyze an expression level of SEAP (secreted alkaline phosphatase).
To this end, the inducible secreted embryonic alkaline phosphatase (SEAP) reporter gene was placed under the control of an IL-12 p40 minimal promoter (IL-12 p40 is produced by activation of NF-κB and AP-1 (activator protein 1) after stimulation of TLR4) which contains sites where DNAs of NF-κB and AP-1 bind. Then, HEK-Blue™-hTLR4 cells were treated with varying concentrations of TIP or TIP (TIP W/O CPP), to which CPP is not linked, at 12.5, 25, 50 μM, and then an average value of SEAP activity was calculated to measure TLR4 activity. The results are illustrated in FIGS. 1(a) and 1(b).
The results are illustrated in FIGS. 12(a) and 12(b).

The subject of a further experiment is hPBMC cells. Put plainly: NO secretion in LPS-treated hPBMC cells. The class given is cell-based, human. The conditions noted are these: together with LPS, FIG. 12(b).
In a further experiment the target is T2, TLR4 (Homo sapiens, UniProt O00206).
T2 construct: endogenous in cells; host or cells: THP1
Put plainly: Confocal microscopy of TIP1-FITC and TLR4 in THP1 cells. The class given is cell-based. The conditions noted are these: TIP1-FITC and LPS. Here is the method: (§1) RAW 264.7 cells and THP1 cells were dispensed into 24-well plates to a cell number of 2×10^5 cells/well, and then grown in an incubator overnight. Subsequently, combined treatment with TIP1 and LPS was performed. After 24 hours, the RAW 264.7 cells and the THP1 cells were fixed with 3.7% formaldehyde (Sigma-Aldrich Co. LLC) for 15 minutes, and immersed into 0.2% Triton X-100 (AMRESCO, Solon, Ohio, USA) for 15 minutes. Then, washing with PBS was performed three times and blocking with 2% BSA solution was performed. The blocked cells were incubated for 2 hours with TIP1-FITC (25 μM; Peptron, Inc., Daejeon, Korea), p-p65, TLR4, Myd88, TOM20 (1:1000; Santa Cruz Biotechnology Inc.), and NLRP3 (Adipogen) antibodies. Then, washing with PBS was performed three times. Subsequently, the cells were incubated with AlexaFluor […] and/or 488 and/or 546-conjugated secondary antibodies (Invitrogen, Carlsbad, Calif., USA) for 1 hour, and washed three times with PBS. Subsequently, the cells were stained at room temperature for 15 minutes using 5 μM Hoechst 33258 (Sigma-Aldrich Co.), and the number of the fluorescently stained cells was counted using a confocal laser scanning microscope (LSM-700, Carl Zeiss MicroImaging GmbH). The images were analyzed using Zen 2009 software.
(§2) The results are illustrated in FIG. 13.

For the next experiment, the target named is T3, MyD88 (Homo sapiens, UniProt Q99836).
T3 construct: endogenous in cells; host or cells: THP1
Nature of the experiment: Confocal microscopy of TIP1-FITC and MyD88 in THP1 cells. The conditions noted are these: TIP1-FITC and LPS. The class given is cell-based. Here is the method:
as §1, §2

Primed or numbered codes have the meaning given here. Ends that are not written are not given here. FITC′ = fluorescein isothiocyanate

T1 sequence (O00206 24-839): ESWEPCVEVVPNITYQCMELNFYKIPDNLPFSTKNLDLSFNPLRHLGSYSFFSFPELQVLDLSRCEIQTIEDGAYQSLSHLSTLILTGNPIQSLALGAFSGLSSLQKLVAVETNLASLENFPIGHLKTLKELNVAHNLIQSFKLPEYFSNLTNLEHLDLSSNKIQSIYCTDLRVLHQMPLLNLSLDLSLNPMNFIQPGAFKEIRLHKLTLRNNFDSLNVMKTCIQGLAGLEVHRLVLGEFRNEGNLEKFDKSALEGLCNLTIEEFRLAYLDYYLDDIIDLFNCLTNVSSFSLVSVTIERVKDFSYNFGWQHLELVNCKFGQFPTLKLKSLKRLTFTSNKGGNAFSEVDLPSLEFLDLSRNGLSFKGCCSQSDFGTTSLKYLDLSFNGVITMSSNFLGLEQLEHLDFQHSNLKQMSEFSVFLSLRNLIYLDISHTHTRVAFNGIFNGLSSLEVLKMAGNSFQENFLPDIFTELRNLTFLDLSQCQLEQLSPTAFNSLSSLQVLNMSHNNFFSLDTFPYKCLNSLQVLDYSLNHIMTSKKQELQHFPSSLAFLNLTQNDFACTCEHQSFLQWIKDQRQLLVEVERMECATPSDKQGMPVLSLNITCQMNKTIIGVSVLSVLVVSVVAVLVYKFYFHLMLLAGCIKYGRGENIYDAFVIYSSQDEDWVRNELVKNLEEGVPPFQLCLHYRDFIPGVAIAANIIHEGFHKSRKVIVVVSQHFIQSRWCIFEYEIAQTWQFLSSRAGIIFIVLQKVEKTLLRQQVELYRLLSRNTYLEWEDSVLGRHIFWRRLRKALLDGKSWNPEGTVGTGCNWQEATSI
T1 sequence (Q9Y6Y9 17-160 partner limits assumed): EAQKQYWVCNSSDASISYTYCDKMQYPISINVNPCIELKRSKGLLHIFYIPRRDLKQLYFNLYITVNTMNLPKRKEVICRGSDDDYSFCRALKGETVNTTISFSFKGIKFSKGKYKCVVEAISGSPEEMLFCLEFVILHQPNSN
T3 sequence (Q99836 whole entry): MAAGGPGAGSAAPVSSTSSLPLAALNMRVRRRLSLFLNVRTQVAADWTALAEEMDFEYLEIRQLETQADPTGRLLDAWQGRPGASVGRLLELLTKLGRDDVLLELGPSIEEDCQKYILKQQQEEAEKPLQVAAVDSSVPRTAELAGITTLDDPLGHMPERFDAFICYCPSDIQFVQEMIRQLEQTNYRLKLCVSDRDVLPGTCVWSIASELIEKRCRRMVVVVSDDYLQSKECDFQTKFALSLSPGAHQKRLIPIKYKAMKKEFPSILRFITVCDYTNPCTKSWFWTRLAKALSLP
T2 sequence (O00206 24-839): as the sequence (O00206 24-839) above

Turning to RQIKIWFQNRRMKWKKSHCR (TIP1-2), in the experiment with hTLR4 (human TLR4), the “NF-κB activity (SEAP activity)” value is “also decreased NF-κB activity”. Besides, the NO secretion level result in the experiment with hPBMC cells is listed as “also inhibited NO secretion”.

In the case of “RQIKIWFQNRRMKWKKTIPLLS (TIP2) [used as a control]”, in the experiment with hTLR4 (human TLR4) (TIP 12.5, 25, 50 μM, then LPS, FIG. 1(a)), the “LPS-induced SEAP activity” value is given as “unlike TIP2, TIP1 decreased LPS-induced SEAP activity”. With RQIKIWFQNRRMKWKKVLLI (TIP1-3), the “NF-κB activity (SEAP activity)” value in the experiment with hTLR4 (human TLR4) is on record as “no or insignificant changes were observed”. For the same substance, the NO secretion level entry in the experiment on hPBMC cells is recorded as “no or insignificant changes were observed”.

Regarding “SHCRVLLI (Decoy peptide 1) [TIP1 W/O CPP]”, the “SEAP activity, CPP sequence not linked” value with hTLR4 (human TLR4) is “neither TIP1 (TIP1 W/O CPP) nor TIP2 (TIP2 W/O CPP) changed SEAP activity”. Take “TIP1-FITC: TIP1 with fluorescein isothiocyanate (FITC) bound to the N-terminus ({FITC′}-RQIKIWFQNRRMKWKKSHCRVLLI)”: the “interaction of TIP1-FITC with TLR4” value with TLR4 is reported as “strongly bound to each other”. The “interaction of TIP1-FITC with MyD88” value in the experiment with MyD88 is recorded as “formed a weak bond”. Regarding TIPLLS (Decoy peptide 2) [TIP2 W/O CPP], the “SEAP activity, CPP sequence not linked” value with hTLR4 (human TLR4) is on record as “neither TIP1 (TIP1 W/O CPP) nor TIP2 (TIP2 W/O CPP) changed SEAP activity”.
